Experiment [1] deals with HLA-A*01:01. As to the kind of experiment: IEDB peptide-MHC binding, purified MHC/direct/fluorescence; filed as Kd, often an IC50 or EC50 that approximates it; ≥ and ≤ were set here for values at or beyond the usual limits of such assays.
Experiment [2] concerns the target HLA-A*02:01. Described as above.
Experiment [3] has as its target HLA-A*03:01. Described as above.
Experiment [4] has as its target HLA-A*11:01. The experiment is described as above.
Experiment [5] concerns the target HLA-A*26:01. Described as above.
In experiment [6] the target is HLA-A*31:01. The experiment is described as above.
In experiment [7] the target is HLA-A*69:01. The experiment is described as above.
The target in experiment [8] is HLA-B*07:02. The description is as above.
In experiment [9] the target is HLA-B*08:01. The description is as above.
The target of experiment [10] is HLA-B*15:01. The description is as above.
For experiment [11], the target named is HLA-B*15:17. Described as above. The conditions noted are these: source organism: Giardia lamblia ATCC 50803.
For experiment [12], the target named is HLA-B*27:05. The description is as above.
The target of experiment [13] is HLA-B*35:01. The experiment is described as above.
Experiment [14] deals with HLA-B*40:01. The experiment is described as above.
Experiment [15] concerns the target HLA-B*44:02. The experiment is described as above.
In experiment [16] the target is HLA-B*57:01. The experiment is described as above.
In experiment [17] the target is HLA-B*58:01. The experiment is described as above.
Experiment [18] addresses HLA-A*24:03. The experiment is described as above. The conditions noted are these: source organism: Pasteurella multocida.
Experiment [19] deals with HLA-A*29:02. The experiment is described as above. The conditions noted are these: source organism: West Nile virus.
In experiment [20] the target is HLA-B*15:09. The experiment is described as above.
Experiment [21] concerns the target HLA-B*18:01. The experiment is described as above. The conditions noted are these: source organism: West Nile virus.
For experiment [22], the target named is HLA-B*39:01. The experiment is described as above.
In experiment [23] the target is HLA-B*46:01. Described as above.
The target in experiment [24] is HLA-B*48:01. The experiment is described as above.
Experiment [25] has as its target HLA-A*31:01. As to the kind of experiment: IEDB peptide-MHC binding, purified MHC/competitive/fluorescence; filed as Kd, often an IC50 or EC50 that approximates it; ≥ and ≤ were set here for values at or beyond the usual limits of such assays.
In experiment [26] the target is HLA-A*29:02. The description is as above. The conditions noted are these: source organism: Cryptosporidium parvum Iowa II.
The target in experiment [27] is HLA-C*05:01. As to the kind of experiment: IEDB peptide-MHC binding, purified MHC/direct/fluorescence; filed as Kd, often an IC50 or EC50 that approximates it; ≥ and ≤ were set here for values at or beyond the usual limits of such assays. The conditions noted are these: source organism: Vaccinia virus Copenhagen.
The target in experiment [28] is HLA-A*02:01. As to the kind of experiment: IEDB peptide-MHC binding, purified MHC/competitive/fluorescence; filed as Kd, often an IC50 or EC50 that approximates it; ≥ and ≤ were set here for values at or beyond the usual limits of such assays. The conditions noted are these: source organism: Vaccinia virus Copenhagen.
The target in experiment [29] is HLA-A*69:01. The description is as above. The conditions noted are these: source organism: Vaccinia virus Copenhagen.
Experiment [30] has as its target HLA-B*15:01. Described as above. The conditions noted are these: source organism: Vaccinia virus Copenhagen.
Where [31] appears, read: source organism: Giardia lamblia ATCC 50803.
Setting [32] is: source organism: Pasteurella multocida.
Setting [33] is: source organism: West Nile virus.
The mark [34] stands for this setting: source organism: Camelpox virus M-96.
Setting [35] is: source organism: Vibrio cholerae.
Setting [36] is: source organism: Listeria monocytogenes.
The mark [37] stands for this setting: source organism: Vibrio parahaemolyticus.
[38] abbreviates: source organism: Campylobacter jejuni.

A value given as a limit tells only on which side of the number the result lay.

A word on the Kd: it is a measure of binding affinity in units of concentration. A low value points to higher affinity.

Take HSSVAGGLW: the Kd in experiment [1] (setting [31]) was 0.59 µM; in experiment [2] (setting [31]), at least 20 µM; in [3] (setting [31]) it was at least 20 µM; in experiment [4] (setting [31]), at least 20 µM; in experiment [5] (setting [31]), at least 20 µM; in experiment [6] (setting [31]), at least 20 µM. The Kd was at least 20 µM in experiment [7] (setting [31]); at least 20 µM in experiment [8] (setting [31]); at least 20 µM in [9] (setting [31]); at least 20 µM in [10] (setting [31]); 0.0011 µM in [11]; at least 20 µM in experiment [12] (setting [31]). For the same sequence, the Kd was 0.278 µM in experiment [13] (setting [31]); at least 20 µM in experiment [14] (setting [31]); at least 20 µM in experiment [15] (setting [31]); 0.0535 µM in experiment [16] (setting [31]); 0.00374 µM in experiment [17] (setting [31]).
On to VMLDWGIEL, for which the Kd was at least 20 µM in experiment [1] (setting [32]); 0.00619 µM in experiment [2] (setting [32]); at least 20 µM in [3] (setting [32]); 3.03 µM in experiment [4] (setting [32]); at least 20 µM in experiment [18]; at least 20 µM in experiment [5] (setting [32]). Besides, the Kd in [6] (setting [32]) was at least 20 µM; in experiment [7] (setting [32]) it was 0.599 µM; in experiment [8] (setting [32]) it was 11.3 µM; in [9] (setting [32]), at least 20 µM; in [10] (setting [32]) it was 0.267 µM; in experiment [12] (setting [32]) it was at least 20 µM. Moreover, the Kd in experiment [13] (setting [32]) was 0.297 µM; in experiment [14] (setting [32]), at least 20 µM; in [17] (setting [32]) it was at least 20 µM.
Regarding AHYEEDVNL, the Kd in experiment [1] (setting [33]), in experiment [2] (setting [33]), in experiment [3] (setting [33]), in [4] (setting [33]), in [19] and in experiment [6] (setting [33]) was at least 20 µM each time. The Kd in experiment [7] (setting [33]) was at least 20 µM; in [8] (setting [33]) it was at least 20 µM; in experiment [10] (setting [33]) it was at least 20 µM; in [20] (setting [33]), 1.8 µM; in experiment [21], at least 20 µM; in experiment [12] (setting [33]), at least 20 µM. Also, the Kd is 1.71 µM in experiment [22] (setting [33]); at least 20 µM in experiment [14] (setting [33]); at least 20 µM in experiment [15] (setting [33]); at least 20 µM in experiment [23] (setting [33]); at least 20 µM in [24] (setting [33]); at least 20 µM in experiment [16] (setting [33]). The sequence further had a Kd in experiment [17] (setting [33]) of at least 20 µM.
In the case of SQEDNHFSL, the Kd in experiment [1] (setting [34]), in experiment [2] (setting [34]), in experiment [3] (setting [34]), in experiment [4] (setting [34]), in experiment [5] (setting [34]) and in [6] (setting [34]) was at least 20 µM in each case. The Kd was at least 20 µM in experiment [7] (setting [34]); at least 20 µM in experiment [8] (setting [34]); at least 20 µM in experiment [9] (setting [34]); 2.79 µM in [10] (source organism: Variola virus); at least 20 µM in [12] (setting [34]); 1.56 µM in [13] (source organism: Variola virus). For the same sequence, the Kd is 0.141 µM in [14] (source organism: Variola virus), at least 20 µM in experiment [15] (setting [34]) and at least 20 µM in [17] (setting [34]).
In the case of MVGVGSLVK, the Kd was 0.027 µM in experiment [4] (setting [33]) and at least 20 µM in experiment [25] (setting [33]).
With EGIEGRIAY, the Kd in experiment [1] (setting [35]) was at least 20 µM; in experiment [2] (setting [35]), at least 20 µM; in experiment [3] (setting [35]), at least 20 µM; in [4] (setting [35]), at least 20 µM; in experiment [5] (setting [35]) it was 0.00861 µM; in experiment [6] (setting [35]) it was at least 20 µM. In addition, the Kd in [7] (setting [35]) was at least 20 µM; in [8] (setting [35]), at least 20 µM; in experiment [9] (setting [35]), at least 20 µM; in experiment [10] (setting [35]), 0.306 µM; in [12] (setting [35]), at least 20 µM; in experiment [13] (setting [35]) it was 0.0159 µM. The Kd in experiment [14] (setting [35]), in [15] (setting [35]) and in experiment [17] (setting [35]) was at least 20 µM in each case.
For the sequence LLARFGLEK, the Kd in experiment [3] (setting [36]) stood at 0.0141 µM; in [4] (setting [36]), 0.0103 µM; in experiment [25] (source organism: Listeria monocytogenes J0161) it was 1.4 µM.
Take EVDEGSDMM: the Kd in experiment [1] (setting [37]) was 4.3 µM; in experiment [2] (setting [37]) it was at least 20 µM; in [3] (setting [37]) it was at least 20 µM; in experiment [4] (setting [37]), at least 20 µM; in [5] (setting [37]) it was 4.43 µM; in [6] (setting [37]) it was at least 20 µM. Further, the Kd in experiment [7] (setting [37]) is 0.141 µM; in experiment [8] (setting [37]) it was at least 20 µM; in experiment [9] (setting [37]), at least 20 µM; in experiment [10] (setting [37]), at least 20 µM; in experiment [12] (setting [37]) it was at least 20 µM; in experiment [13] (setting [37]), 0.254 µM. For the same sequence, the Kd in experiment [14] (setting [37]), in experiment [15] (setting [37]) and in [17] (setting [37]) was at least 20 µM each time.
TLYYLECKR: the Kd in experiment [3] (setting [38]) was at least 20 µM; in [25] (setting [38]), 0.0545 µM.
Regarding TVHDRTPYR, the Kd in experiment [3] (source organism: Influenza A virus (A/SW/MN/3128/00(H1N2))) and in experiment [25] (source organism: Influenza A virus (A/Waikato/7/2000(H3N2))) was at least 20 µM throughout.
On to MMGIILSKY, for which the Kd in experiment [26] was found to be 0.052 µM.
On to YTDLTYQSF, for which the Kd was 0.019 µM in experiment [1] (source organism: Cowpox virus); at least 20 µM in [3] (source organism: Cowpox virus); at least 20 µM in experiment [4] (source organism: Cowpox virus); 0.233 µM in [5] (source organism: Variola virus); at least 20 µM in experiment [6] (source organism: Cowpox virus); at least 20 µM in experiment [9] (source organism: Variola virus). Moreover, the Kd in [20] (source organism: Variola virus), in experiment [12] (source organism: Cowpox virus), in [22] (source organism: Variola virus), in experiment [14] (source organism: Cowpox virus), in [23] (source organism: Cowpox virus) and in experiment [24] (source organism: Cowpox virus) was at least 20 µM each time. The Kd in experiment [16] (source organism: Cowpox virus) was 3.76 µM; in [17] (source organism: Variola virus), 0.083 µM; in experiment [27], at most 0.001 µM; in experiment [28] it was at least 20 µM; in [29] it was at least 20 µM; in [30], 2.64 µM.

The values above are taken from the Immune Epitope Database (IEDB).
